According to paper PMC5482573 (eLife, 2017):

T1: α-COP (M. musculus, in recombinant coatomer) (M. musculus, UniProt Q8CIE6 1-1224)
T1 construct: alpha-COP, coatomer subunit alpha, M. musculus; Stood in the assays as a subunit of the whole heptameric coatomer; source: SF9 insect cells (baculovirus), as part of recombinant coatomer, purified
T1 sequence: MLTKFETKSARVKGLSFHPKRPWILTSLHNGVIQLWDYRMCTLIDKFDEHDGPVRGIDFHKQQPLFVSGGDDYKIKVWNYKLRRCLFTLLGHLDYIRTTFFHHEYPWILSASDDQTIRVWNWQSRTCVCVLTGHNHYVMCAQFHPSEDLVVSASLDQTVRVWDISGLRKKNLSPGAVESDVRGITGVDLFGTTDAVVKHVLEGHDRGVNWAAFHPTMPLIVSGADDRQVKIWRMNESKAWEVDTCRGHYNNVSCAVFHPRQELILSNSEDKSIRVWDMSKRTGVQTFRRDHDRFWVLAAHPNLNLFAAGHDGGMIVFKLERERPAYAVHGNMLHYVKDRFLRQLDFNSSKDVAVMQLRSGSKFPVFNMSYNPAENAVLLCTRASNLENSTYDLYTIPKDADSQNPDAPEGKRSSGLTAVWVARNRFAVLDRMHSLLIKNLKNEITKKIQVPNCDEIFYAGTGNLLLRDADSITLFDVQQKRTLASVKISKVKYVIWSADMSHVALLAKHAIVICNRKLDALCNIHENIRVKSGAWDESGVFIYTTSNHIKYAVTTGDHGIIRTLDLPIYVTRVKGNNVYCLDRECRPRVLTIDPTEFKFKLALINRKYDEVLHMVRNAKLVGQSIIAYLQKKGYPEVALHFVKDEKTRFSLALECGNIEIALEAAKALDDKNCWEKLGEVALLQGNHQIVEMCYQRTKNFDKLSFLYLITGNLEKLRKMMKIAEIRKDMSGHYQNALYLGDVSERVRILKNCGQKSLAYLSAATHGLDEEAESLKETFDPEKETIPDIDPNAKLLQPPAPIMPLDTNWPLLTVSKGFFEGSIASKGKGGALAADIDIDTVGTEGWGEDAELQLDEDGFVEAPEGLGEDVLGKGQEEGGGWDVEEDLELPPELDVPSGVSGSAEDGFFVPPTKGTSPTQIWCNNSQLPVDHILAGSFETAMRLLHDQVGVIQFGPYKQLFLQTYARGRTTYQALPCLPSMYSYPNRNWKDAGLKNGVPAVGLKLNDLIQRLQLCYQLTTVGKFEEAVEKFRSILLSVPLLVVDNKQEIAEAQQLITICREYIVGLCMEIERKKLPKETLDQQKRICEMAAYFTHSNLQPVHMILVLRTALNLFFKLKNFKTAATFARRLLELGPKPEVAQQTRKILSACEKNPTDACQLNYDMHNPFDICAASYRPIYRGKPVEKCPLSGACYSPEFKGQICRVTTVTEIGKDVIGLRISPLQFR

B1: β’-COP (M. musculus, in recombinant coatomer) (natural protein)
chain: MPLRLDIKRKLTARSDRVKSVDLHPTEPWMLASLYNGSVCVWNHETQTLVKTFEVCDLPVRAAKFVARKNWVVTGADDMQIRVFNYNTLERVHMFEAHSDYIRCIAVHPTQPFILTSSDDMLIKLWDWDKKWSCSQVFEGHTHYVMQIVINPKDNNQFASASLDRTIKVWQLGSSSPNFTLEGHEKGVNCIDYYSGGDKPYLISGADDRLVKIWDYQNKTCVQTLEGHAQNVSCASFHPELPIIITGSEDGTVRIWHSSTYRLESTLNYGMERVWCVASLRGSNNVALGYDEGSIIVKLGREEPAMSMDANGKIIWAKHSEVQQANLKAMGDTEIKDGERLPLAVKDMGSCEIYPQTIQHNPNGRFVVVCGDGEYIIYTAMALRNKSFGSAQEFAWAHDSSEYAIRESNSIVKIFKNFKEKKSFKPDFGAESIYGGFLLGVRSVNGLAFYDWENTELIRRIEIQPKHIFWSDSGELVCIATEESFFILKYLSEKVLAAQETHEGVTEDGIEDAFEVLGEIQEIVKTGLWVGDCFIYTSSVNRLNYYVGGEIVTIAHLDRTMYLLGYIPKDNRLYLGDKELNIVSYSLLVSVLEYQTAVMRRDFSMADKVLPTIPKEQRTRVAHFLEKQGFKQQALTVSTDPEHRFELALQLGELKIAYQLAVEAESEQKWKQLAELAISKCQFSLAQECLHHAQDYGGLLLLATASGNASMVNKLAEGAERDGKNNVAFMSYFLQGKLDACLELLIRTGRLPEAAFLARTYLPSQVSRVVKLWRENLSKVNQKAAESLADPTEYENLFPGLKEAFVVEEWVKETHADLWPAKQYPLVTPNEERNVMEEAKGFQPSRPTAQQEPDGKPASSPVIMASQTTHKEEKSLLELEVDLDNLELEDIDTTDINLDEDILDD
notes: beta'-COP, coatomer subunit beta', M. musculus; Stood in the assays as a subunit of the whole heptameric coatomer; source: SF9 insect cells (baculovirus), as part of recombinant coatomer, purified
B2: R. norvegicus ArfGAP2, full-length, N-terminally His-tagged (enzyme)
chain: not shown
notes: PDB 2P57 was fitted for it; source: insect cells, purified (Ni-NTA, gel filtration)
B3: S. cerevisiae myristoylated Arf1 (natural protein)
chain: MGLFASKLFSNLFGNKEMRILMVGLDGAGKTTVLYKLKLGEVITTIPTIGFNVETVQYKNISFTVWDVGGQDRIRSLWRHYYRNTEGVIFVVDSNDRSRIGEAREVMQRMLNEDELRNAAWLVFANKQDLPEAMSAAEITEKLGLHSIRNRPWFIQATCATSGEGLYEGLEWLSNSLKNST
modifications: myristoylated
notes: Arf1 (ADP-ribosylation factor 1), S. cerevisiae, loaded with GTPγS on membranes; also called γArf1 (central); βArf1 (peripheral); source: E. coli, purified
B4: β-COP (M. musculus, in recombinant coatomer) (natural protein)
chain: MTAAENVCYTLINVPMDSEPPSEISLKNDLEKGDVKSKTEALKKVIIMILNGEKLPGLLMTIIRFVLPLQDHTIKKLLLVFWEIVPKTTPDGRLLHEMILVCDAYRKDLQHPNEFIRGSTLRFLCKLKEAELLEPLMPAIRACLEHRHSYVRRNAVLAIYTIYRNFEHLIPDAPELIHDFLVNEKDASCKRNAFMMLIHADQDRALDYLSTCIDQVQTFGDILQLVIVELIYKVCHANPSERARFIRCIYNLLQSSSPAVKYEAAGTLVTLSSAPTAIKAAAQCYIDLIIKESDNNVKLIVLDRLVELKEHPAHERVLQDLVMDILRVLSTPDLEVRKKTLQLALDLVSSRNVEELVIVLKKEVIKTNNVSEHEDTDKYRQLLVRTLHSCSVRFPDMAANVIPVLMEFLSDSNEAAAADVLEFVREAIQRFDNLRMLIVEKMLEVFHAIKSVKIYRGALWILGEYCSTKEDIQSVMTEVRRSLGEIPIVESEIKKEAGELKPEEEITVGPVQKLVTEMGTYATQSALSSSRPTKKEEDRPPLRGFLLDGDFFVAASLATTLTKIALRYVALVQEKKKQNSFVAEAMLLMATILHLGKSSLPKKPITDDDVDRISLCLKVLSECSPLMNDIFNKECRQSLSQMLSAKLEEEKLSQKKESEKRNVTVQPDDPISFMQLTAKNEMNCKEDQFQLSLLAAMGNTQRKEAADPLASKLNKVTQLTGFSDPVYAEAYVHVNQYDIVLDVLVVNQTSDTLQNCTLELATLGDLKLVEKPSPLTLAPHDFANIKANVKVASTENGIIFGNIVYDVSGAASDRNCVVLSDIHIDIMDYIQPATCTDAEFRQMWAEFEWENKVTVNTNMTDLNDYLQHILKSTNMKCLTPEKALSGYCGFMAANLYARSIFGEDALANVSIEKPVHQGPDAAVTGHIRIRAKSQGMALSLGDKINLSQKKTSL
notes: beta-COP, coatomer subunit beta, M. musculus. numbers count on: the construct with its N-terminal His-tag, shifted by 15 residues relative to Q9JIF7; Stood in the assays as a subunit of the whole heptameric coatomer; The coatomer of the photo-cross-linking is called only 'coatomer'; source: SF9 insect cells (baculovirus), as part of recombinant coatomer, purified

Experiments:
Settings in all cases: both partners purified
[1] = biological target: B4; assay: cryo-EM structure; cryo-electron tomography and subtomogram averaging of the COPI leaf, 9.2 Å; coat assembled in vitro from coatomer (840 nM), Arf1 (2 μM), GTPγS, ARNO and GUVs, 37°C, 50 mM HEPES pH 7.4, 50 mM KOAc, 1 mM MgCl2
[2] = biological target: T1, α-COP (M. musculus, in recombinant …); assay: as above
[3] = biological target: B1; assay: cryo-EM structure; COPI coated vesicles with GTPγS incubated 15–20 min with a 10 molar excess of ArfGAP2; subtomogram averaging, difference map and classification; class with ArfGAP2 at 10.1 Å
[4] = biological target: B4; assay: as above
[5] = biological target: B2; assay: as above

B1
binding result [1]: binds | binding result [2]: binds

B2
binding result [3]: binds | binding result [4]: binds

B3
binding result [5]: binds | binding result [1]: binds

B4
binding result [2]: binds
